From patent US20050260197A1 (IMMUNEX, published 2005)

B1: soluble OSM-Rβ/Fc fusion protein (Fc fusion)
chain: ERLPLTPVSLKVSTNSTRQSLHLQWTVHNLPYHQELKMVFQIQISRIETSNVIWVGNYSTTVKWNQVLHWSWESELPLECATHFVRIKSLVDDAKFPEPNFWSNWSSWEEVSVQDSTGQDILFVFPKDKLVEEGTNVTICYVSRNIQNNVSCYLEGKQIHGEQLDPHVTAFNLNSVPFIRNKGTNIYCEASQGNVSEGMKGIVLFVSKVLEEPKDFSCETEDFKTLHCTWDPGTDTALGWSKQPSQSYTLFESFSGEKKLCTHKNWCNWQITQDSQETYNFTLIAENYLRKRSVNILFNLTHRVYLMNPFSVNFENVNATNAIMTWKVHSIRNNFTYLCQIELHGEGKMMQYNVSIKVNGEYFLSELEPATEYMARVRCADASHFWKWSEWSGQNFTTLEAAPSEAPDVWRIVSLEPGNHTVTLFWKPLSKLVEPRSCDKTHTCPPCPAPELLGGPSVFLFPPKPKDTLMISRTPEVTCVVVDVSHEDPEVKFNWYVDGVEVHNAKTKPREEQYNSTYRVVSVLTVLHQDWLNGKDYKCKVSNKALPAPMQKTISKAKGQPREPQVYTLPPSRDELTKNQVSLTCLVKGFYPRHIAVEWESNGQPENNYKTTPPVLDSDGSFFLYSKLTVDKSRWQQGNVFSCSVMHEALHNHYTQKSLSLSPGK
notes: Truncated extracellular domain of OSM-Rβ; Tested from culture supernatant, captured on Protein A beads; also called experiment D
B2: soluble human gp130/Fc fusion protein (Fc fusion)
chain: ELLDPCGYISPESPVVQLHSNFTAVCVLKEKCMDYFHVNANYIVWKTNHFTIPKEQYTIINRTASSVTFTDIASLNIQLTCNILTFGQLEQNVYGITIISGLPPEKPKNLSCIVNEGKKMRCEWDGGRETHLETNFTLKSEWATHKFADCKAKRDTPTSCTVDYSTVYFVNIEVWVEAENALGKVTSDHINFDPVYKVKPNPPHNLSVINSEELSSILKLTWTNPSIKSVIILKYNIQYRTKDASTWSQIPPEDTASTRSSFTVQDLKPFTEYVFRIRCMKEDGKGYWSDWSEEASGITYEDRPSKAPSFWYKIDPSHTQGYRTVQLVWKTLPPFEANGKILDYEVTLTRWKSHLQNYTVNATKLTVNLTNDRYLATLTVRNLVGKSDAAVLTIPACDFQATHPVMDLKAFPKDNMLWVEWTTPRESVKKYILEWCVLSDKAPCITDWQQEDGTVHRTYLRGNLAESKCYLITVTPVYADGPGSPESIKAYLKQAPPSKGPTVRTKKVGKNEAVLEWDQLPVDVQNGFIRNYTIFYRTIIGNETAVNVDSSHTEYTLSSLTSDTLYMVRMAAYTDEGGKDGPEPRSCDKTHTCPPCPAPELLGGPSVFLFPPKPKDTLMISRTPEVTCVVVDVSHEDPEVKFNWYVDGVEVHNAKTKPREEQYNSTYRVVSVLTVLHQDWLNGKDYKCKVSNKALPAPMQKTISKAKGQPREPQVYTLPPSRDELTKNQVSLTCLVKGFYPRHIAVEWESNGQPENNYKTTPPVLDSDGSFFLYSKLTVDKSRWQQGNVFSCSVMHEALHNHYTQKSLSLSPGK
notes: Tested from culture supernatant, captured on Protein A beads; also called soluble gp130/Fc; experiment B; not shown: 7 amino acid peptide linker encoded by the polylinker of plasmid hIgG1Fc
B3: proteins expressed by cells co-transfected with vectors encoding soluble OSM-Rβ/Fc and soluble gp130/Fc (Fc fusion)
chain 1: B1 chain
chain 2: B2 chain
notes: also called OSM-Rβ/Fc and gp130/Fc; experiment F; not shown: 7 amino acid peptide linker encoded by the polylinker of plasmid hIgG1Fc

Assays:
[1] = molecular target: T1, oncostatin M (125I-labeled) (UniProt P13725 26-221, limits assumed, radioiodinated (125I)); assay: 125I-oncostatin M binding to Fc fusion captured on Protein A beads
T1 construct: also called OSM; 125I-OSM
T1 sequence (looked up): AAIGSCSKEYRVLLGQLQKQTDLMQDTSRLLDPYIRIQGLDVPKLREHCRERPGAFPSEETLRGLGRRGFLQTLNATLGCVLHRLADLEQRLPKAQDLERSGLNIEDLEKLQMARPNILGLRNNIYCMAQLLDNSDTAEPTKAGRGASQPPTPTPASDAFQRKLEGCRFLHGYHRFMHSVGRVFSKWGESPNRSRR
Protocol: (§1) The transfected cells were cultured to allow expression and secretion of the fusion proteins into the culture medium. Cross-linked agarose beads bearing Protein A (Protein A Sepharose CL-4B, Pharmacia Biotech, Inc., Piscataway, N.J.) were added to the culture supernatants, whereupon the fusion proteins bound to the beads via the interaction of the Fc moiety with the Protein A. Radioiodinated oncostatin M or radioiodinated LIF was also added to the culture supernatants. Preparation of ¹²⁵I-oncostatin M is described in example 2 above. Among the known procedures for purifying and radioiodinating LIF are those described in example 1 of U.S. Pat. No. 5,284,755. The ¹²⁵I-LIF employed in this assay was recombinant human LIF labeled with 125I using the enzymobead reagent (BioRad).
(§2) The culture supernatants were incubated with the Protein A beads and ¹²⁵I-LIF or ¹²⁵I-oncostatin M for 18 hours at 4° C. Free and cell-bound ¹²⁵I-LIF or ¹²⁵i-oncostatin M were separated by low speed centrifugation through a single step density gradient of 3% glucose in PBS. The bead-bound radioiodinated proteins were quantified on a Packard Autogamma counter.

[2] = molecular target: T2, recombinant human leukemia inhibitory factor (125I-labeled) (human, UniProt P15018 23-202, radioiodinated (125I)); assay: 125I-LIF binding to Fc fusion captured on Protein A beads
T2 construct: also called LIF; 125I-LIF
Protocol: as §1, §2

[3] = molecular target: T2, recombinant human leukemia inhibitory …; assay: 125I-LIF binding to Fc fusions captured on Protein A beads
Protocol: as §1, §2

T2 sequence (P15018 23-202 limits assumed): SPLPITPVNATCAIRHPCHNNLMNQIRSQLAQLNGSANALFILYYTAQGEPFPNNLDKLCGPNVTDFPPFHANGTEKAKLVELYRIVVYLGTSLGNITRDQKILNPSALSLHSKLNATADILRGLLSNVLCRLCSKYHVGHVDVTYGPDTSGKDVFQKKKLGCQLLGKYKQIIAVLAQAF

| binding result [1] | binding result [2] | binding result [3] | Binder |
| --- | --- | --- | --- |
| no binding | no binding | – | B1 |
| – | no binding | – | B2 |
| – | – | no binding | B3 |
